Experimental data taken from a protein production outcome set (Wang et al. 2014).

Assay: label from the status in PepcDB records

| Sequence | protein production |
| --- | --- |
| MAGKQQERVNVEGHELTLTNLNKIIYPETGTTKAEVLEYYAAVAPFLIPAAANRPVTRKRWVNGVGTAENPGQVFFQKNLEDSAPKWIPRAAIQHSDHTNVYPMVNNLATLTWMAQIASLEIHVPQWQVDPSGKPLRPDRFVLDLDPGPGAGLPECVEVAKLARSILQDMGMDPVPVTSGSKGIHLYTGLDGTLKSEQVSAFAKELARALESDHPELVVSDMKKSLRHGKVLVDWSQNSGNKTTIVPYSLRGKAHPTVAAPRTWRELSSPSLEHLDYVAVMKRVKTGKDHFAPISERHLPPHGEDENDDDGTAGSSSGTGRSRERVVTVENRLAKYVGMRDPGKTPEPFPSSSAVSASPQSAGSSSDQPKPGDPPPPGGIFVIQEHHARRYHLDLRLEHHGVLASWALPRGIPETPDRNNLAVHTEDHPMEYANFAGVIPKGEYGAGTMTIWDRGEYTCEKWRDGKEVIATLTGEPGGGLGGTKRFALINTGQNWLIHLMKEQPGGRRGTQPAANAAAPKSAPAQPQPQPMPNYSPMLATSGTTADLRGDDWLYELKWDGIRAIITGTESRIRLMSRNGNDLTAAYPELTDRACWPDGDFVADGEIVALGKGSRPDFGRLQLRMNLVKAADIERARATVPVQLMLFDLLYDDGTDLSGLPFHERRERLSGFAERWRVGCPLHLSAVLDHDVEDLMTSAAELGLEGVMAKKADSRYVIGRRSRSWIKLKLEQSQEVVVGGWRPGAGARAGTFGALLLGIPDGDKLHYVGRVGSGFKDWQLRDIMEKLEPLAIVESPFADIPREDAAGATWVSPELVAEVTFGEWTGPGRLRHPVWRGWRPDKSAGEVTLAGS | failed |
| MAPLGGAPRLVLLFSGKRKSGKDFVTEALQSRLGADVCAVLRLSGPLKEQYAQEHGLNFQRLLDTSTYKEAFRKDMIRWGEEKRQADPGFFCRKIVEGISQPIWLVSDTRRVSDIQWFREAYGAVTQTVRVVALEQSRQQRGWVFTPGVDDAESECGLDNFGDFDWVIENHGVEQRLEEQLENLIEFIRSRL | failed |
| MDEMRPPPRSRTIYLLPNLFTTAGLFSGFYAIIAAANGQFVQAAMAVFVAAVMDGLDGRVARLTNTSSEFGVQYDSLADLVSFGMAPALVMYHWSLSALKYDSSVMGRVGWSAAFLYAACAALRLARFNTQVGVVDKRWFIGLASPAAAGLMMSFVWAFADDSLGFDGEQLRYVALAVTVVSALLMVSRIRFWSFKGGARGPRADRVPFLALAIATVVIALLVIDLARSLLVIGVLYALSGPLMWLWRRWRRVPELP | failed |
| MRIDLSVPKVGAELELNKVLGKGSSGSVSLIKYKSRLDGQTLYAAVKTSNIIHADSLLKEFQILSEFKGCSRIVQCYGTKVQETINEEGDVEFTIPMEYASGGSLRHFMSRFKDMKLPDALIRRFTRMILEGLAVIHGHGYVHCDLKPENILVFPSFELKISDFGLSKREGDSKWWLPSHPFAGTPVYMSPESISNGETRRGLDLWSLGCVVLEMYTGKRPWWDKNYDLGDLKKGSMPLISKDIPCDAKLFVMTCFASETNKRKNAFTLLRHCFLRGDVNKIIEPLVKSKNSNDIALELENIEHRLSQLRCISGG | failed |
| MRVEENYHAFFTEASGFLNERIFKDYLRRLAYGIDASCYRYIPKIVAWVKNEEEVQKLCVLAKKHGVSLTFRAAGSSLSGQAICDGVLVMVTHFFKDAQILDNAQSIQLSCGVIGSNANALLKPYHKKIGPDPSTINTAMIGGIVANNASGMCCGVEQNSYKTLKSLRVILADGTLLDTANQESVESFKNAHKDLIEGVLNLRKEILEDKELHALIKKKYEIKNTTGYSLNALIDFEDPIEIISHLFIGSEGTLGFISSVELECVKDYAYKTCALLFYENLERCAKAAQILAALKAKQPEMISSAELMDYACLKSVKGLEGMPSVVLEIKEPNACLLIQSESDDPLILENSMQTILNALSAIPVVLDSQISSDPSIYQSWWKIRKGIFPIAASKRKSQSSVIIEDICFSQEDFVEGAKAIEGLLKKHGFKDNGIIFGHALSGNLHFVVTPILENEAERKAFENLVSEMFLMVSKSSGSIKAEHGTGRMVAPFVEMEWGEKAYKIHKQIKELFDPNGILNPDVIITNDKEIHTKNLKSIYPIEEHLDMCMECGFCERICPSKDLSLTPRQRIVIHREVEHLKERVSHGHHEDQVLLDELLKESEYLAHATCAVCHMCSTLCPLEIDTGKIALNYYQKNPKGEKIASKILNHMQTTTSMARFSLKSARLVQNLIGSHNLVSLTKGIKKFIKPFPKAFYYMPKNNAYPLENKTLKSEEKVIYFSTCINRSFAPSNKMADKRCIQEVFESLCQKAKVSVMYPNGLNALCCGKAFINYTDLTKQNNEKNHAIFLQLSDKGKIPIVLDHSACSTHFFKQMKAYKDLKVYDLSVYIEEVLSPKLKFNPINEDIGLYTMCALKLENKEELLFNLAKKCTLGEIVIHKETGCCGFAGNKGFFTPELNESALNGFQAFYQSYDLKRGFSTSSTCEIGLSEKTRFSWQHIAYLVDACTL | failed |
